In patent US20190169246A1:

Each substance was assayed against ApoER2 of primary neuronal culture from embryonic day 17 mice (mouse) (UniProt Q924X6) (assay: cell-based or functional assay).
ApoER2 of primary neuronal culture from embryonic day 17 mice (mouse), sequence (Q924X6 29-996): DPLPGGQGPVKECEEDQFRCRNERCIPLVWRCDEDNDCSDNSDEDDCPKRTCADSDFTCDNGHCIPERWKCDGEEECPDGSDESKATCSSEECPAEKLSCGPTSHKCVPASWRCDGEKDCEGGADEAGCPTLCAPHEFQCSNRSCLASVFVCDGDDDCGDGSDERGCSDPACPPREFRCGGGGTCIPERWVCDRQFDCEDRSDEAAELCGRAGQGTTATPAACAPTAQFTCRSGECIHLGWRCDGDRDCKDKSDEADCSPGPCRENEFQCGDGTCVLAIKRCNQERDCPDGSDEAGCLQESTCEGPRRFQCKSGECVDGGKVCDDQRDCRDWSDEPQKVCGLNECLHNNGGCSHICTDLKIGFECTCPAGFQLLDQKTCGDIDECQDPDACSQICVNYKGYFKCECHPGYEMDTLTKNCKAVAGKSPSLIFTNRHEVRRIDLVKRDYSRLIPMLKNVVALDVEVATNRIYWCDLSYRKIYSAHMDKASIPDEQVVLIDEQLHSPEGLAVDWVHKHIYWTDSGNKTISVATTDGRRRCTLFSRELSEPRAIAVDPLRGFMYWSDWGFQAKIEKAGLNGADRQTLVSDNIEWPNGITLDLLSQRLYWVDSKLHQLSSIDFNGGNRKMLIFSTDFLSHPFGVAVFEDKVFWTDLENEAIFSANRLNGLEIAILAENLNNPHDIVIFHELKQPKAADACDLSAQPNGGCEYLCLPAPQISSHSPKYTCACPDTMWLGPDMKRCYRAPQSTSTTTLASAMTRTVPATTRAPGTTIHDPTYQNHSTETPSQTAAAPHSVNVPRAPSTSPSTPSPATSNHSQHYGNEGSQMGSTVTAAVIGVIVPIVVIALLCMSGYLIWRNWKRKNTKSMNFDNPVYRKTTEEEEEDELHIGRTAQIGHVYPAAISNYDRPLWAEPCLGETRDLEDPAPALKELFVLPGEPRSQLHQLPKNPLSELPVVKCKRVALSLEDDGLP

Substance | levels of phosphorylated ERK to total ERK, primary neurons, 60 minutes (ratio pERK/total ERK)
full length Reelin consisting of the full length sequence and all of the naturally occurring fragments (ligand) | 2.5
mouse Reelin repeats R3 through 6 (from UniProt Q60841 1222-2661) (ligand) | 1.15
Recombinant, human Reelin protein, R3 fragment conjugated to the R5 fragment (Reelin protein fragment R3+R5) (from UniProt P78509 1-2270) (ligand) | 2.22

More lines, now with the values ahead:

levels of phosphorylated ERK to total ERK, primary neurons, 60 minutes (ratio pERK/total ERK) | Substance
2 | Recombinant, human Reelin protein, R3 fragment conjugated to the R6 fragment (Reelin protein fragment R3+R6) (from UniProt P78509 1-2618) (ligand)
0.53 | mouse Reelin N terminal through repeat R2 (from UniProt Q60841 27-1221) (ligand)
